Measured values from the supplement of paper PMC9732359.
± gives the uncertainty stated by the source.

Test: protein stability index of a GFP-peptide fusion (yeast GPS) (PSI 1-4); higher = more stable; sorted into four equal gates, so the index is relative within each strain
Method in brief: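 The protein stability index combines read frequencies across sorting gates, each weighted by its gate number and then summed. To obtain those frequencies, a pooled yeast library of GFP fusions to tiled 17-residue yeast protein peptides, on a plasmid also expressing Cherry, was grown to mid-log phase in leucine-free medium. The cells were sorted into four equal gates by GFP/Cherry ratio before plasmid amplification by PCR and Illumina sequencing.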

Sequence | protein stability index (doa10∆) | protein stability index (pdr5∆) | protein stability index (san1∆) | protein stability index (ubr1∆)
TPMGGFVHYGEIKNDFI [RPL3] | 3.32 ± 0.093 | 3.19 ± 0.092 | 3.27 ± 0.12 | 3.28 ± 0.078
TPNVNVLVLHGDKDTRA [ISW2] | 2.63 ± 0.05 | 2.36 ± 0.05 | 2.32 ± 0.08 | 2.81 ± 0.05
DSLENNEGVPSPMLSIS [FAS1] | 3.08 ± 0.077 | 2.56 ± 0.062 | 2.4 ± 0.1 | 3.29 ± 0.094
DTLCGIRKLTLRDTFIE [RPO21] | 2.91 ± 0.085 | 1.58 ± 0.058 | 1.26 ± 0.1 | 1.46 ± 0.056
EENPIMQTALRRLPEDE [QCR7] | 3.45 ± 0.28 | 3.52 ± 0.28 | – | 3.39 ± 0.18
WLIEGKLYVDAVHSIIA [YDL116W/NUP84] | 1.2 ± 0.18 | 1.32 ± 0.15 | 1.07 ± 0.28 | 1.1 ± 0.095
LNEFFTRELAEEGYSGV [RPS3] | 2.5 ± 0.22 | 1.82 ± 0.12 | 1.44 ± 0.15 | 1.68 ± 0.11
INGEPSIHVNRVERSSR [RRI1] | 2.99 ± 0.078 | 3.01 ± 0.067 | 3.1 ± 0.053 | 3.1 ± 0.051
YSPKQDEQKHNENENSR [RPO21] | 2.69 ± 0.059 | 2.54 ± 0.064 | 2.63 ± 0.07 | 2.67 ± 0.056
TRLLNIVMQLRKCCNHP [ISW2] | 2.65 ± 0.062 | 2.84 ± 0.061 | 2.94 ± 0.049 | 2.84 ± 0.057
TSAHEAIRADPAFKPTE [RPL5] | 3.24 ± 0.15 | 3.17 ± 0.14 | 3.11 ± 0.089 | 3.33 ± 0.11
LEIMQLVCGNDSSYQDI [RET1] | – | – | 3.18 ± 0.081 | 2.91 ± 0.17
HSFIKMLQMKGKLLRNY [SIR2] | 2.19 ± 0.09 | 2.4 ± 0.12 | 2.27 ± 0.16 | 2.15 ± 0.067
PGLEFLDDTTIPVGLMA [MCD1] | 1.99 ± 0.057 | 2.71 ± 0.059 | 3.03 ± 0.041 | 2.52 ± 0.055
MPVAPTMEVKSFPILDQ [YMR129W/POM152] | 1.36 ± 0.1 | 1.29 ± 0.11 | 1.2 ± 0.2 | 1.22 ± 0.093
PLKTQTKNGTPNPNNMK [GAL11] | 2.98 ± 0.085 | 2.94 ± 0.084 | 2.73 ± 0.046 | 2.95 ± 0.043
KTTYYYYNEEGIHILLY [RPC82] | 1.9 ± 0.12 | – | – | 2.75 ± 0.05
SIKSQKEEISDQKPIEH [SWI3] | 2.88 ± 0.059 | 2.98 ± 0.055 | 2.84 ± 0.048 | 2.96 ± 0.045
QYDFKAVLEENDENDDE [RPN14] | 3.04 ± 0.11 | 3.24 ± 0.075 | 3.05 ± 0.076 | 2.89 ± 0.055
ESKDLLRASFNKLSSIL [SRB4] | 1.08 ± 0.097 | 1.33 ± 0.074 | 1.22 ± 0.16 | 1.1 ± 0.094
QRSKKIQPTAKVVYIQR [DIS3] | 2.23 ± 0.27 | 2.56 ± 0.22 | 2.92 ± 0.17 | –

Sequence | protein stability index (doa10∆) | protein stability index (pdr5∆) | protein stability index (san1∆) | protein stability index (ubr1∆)
VAKRRFEYSKYRPLTPS [RRP6] | 3.27 ± 0.066 | 3.28 ± 0.084 | 3.15 ± 0.035 | 2.96 ± 0.049
YWYWWKNGNEYNEFLYS [QCR8] | 2.62 ± 0.066 | 2.21 ± 0.049 | 2.49 ± 0.06 | 2.56 ± 0.047
GQLVELYVPRKCSATNR [RPS21A] | 2.46 ± 0.2 | 1.32 ± 0.19 | 1.13 ± 0.22 | 1.38 ± 0.069
VTTFLNWCAEPEHDERK [CYT1] | 3.41 ± 0.089 | 3.39 ± 0.092 | 3.08 ± 0.18 | 3.15 ± 0.077
LVEYGFDPSRIKDLKQR [SMC2] | 2.04 ± 0.049 | 2.57 ± 0.074 | 2.16 ± 0.082 | 2.51 ± 0.064
EAQIKDWVENELEALKL [FAS2] | 1.96 ± 0.14 | 1.25 ± 0.091 | – | 2.01 ± 0.1
KKLKAVRIIKHTLDIIN [RPS5] | 2 ± 0.066 | 2.01 ± 0.048 | 1.91 ± 0.057 | 2.36 ± 0.051
MASTELSLKRTLTDILE [RPN4] | 1.26 ± 0.18 | 2.65 ± 0.17 | 2.72 ± 0.16 | 2.02 ± 0.29
TYANVLIPCKYLNRHAD [RPN7] | 1.1 ± 0.08 | 1.25 ± 0.089 | 1.18 ± 0.13 | 1.19 ± 0.095
LGFVLLRDYTTVPRIVQ [RPN2] | 1.58 ± 0.046 | 1.66 ± 0.053 | 1.35 ± 0.076 | 1.42 ± 0.038
EEGYSGVEVRVTPTKTE [RPS3] | 2.18 ± 0.16 | 3.15 ± 0.11 | 2.88 ± 0.091 | 3.11 ± 0.08
EGNVPQTLAPVPYETFI [RPL21A] | 3.06 ± 0.066 | 2.74 ± 0.056 | 3.08 ± 0.052 | 2.78 ± 0.056
CKKNTKKCLKLAYENKI [POP4] | 2.77 ± 0.068 | 2.7 ± 0.076 | 2.87 ± 0.057 | 3.13 ± 0.067
LGKLQDVFNLLPNLGTP [RPN8] | 3.06 ± 0.12 | 3.29 ± 0.089 | 2.43 ± 0.085 | 2.82 ± 0.081
VLFAAYKVEHPFFARFK [RPB11] | 2.71 ± 0.089 | 1.87 ± 0.05 | 2.18 ± 0.067 | 2.27 ± 0.1
LALAETLKLRARQRGKL [SRP68] | – | 2.64 ± 0.21 | 2.25 ± 0.26 | 2.97 ± 0.098
VFQDNVYKIYNHVMPLK [SIN4] | 1.65 ± 0.07 | 1.69 ± 0.096 | 1.69 ± 0.098 | 1.62 ± 0.049
ILFELYKIKGRNNSKSV [SRP72] | 2.04 ± 0.068 | 1.92 ± 0.061 | 2.75 ± 0.069 | 1.76 ± 0.062
DLSLNITLHPSFFGPRM [RPB7] | 2.25 ± 0.22 | 1.83 ± 0.1 | 1.7 ± 0.14 | 1.55 ± 0.074
KERNQKFQLQNQLEDFI [YIL149C/MLP2] | 3.05 ± 0.075 | 3.25 ± 0.066 | 2.78 ± 0.05 | 3 ± 0.053
WTRGTGLMSANNIIAEG [FAS2] | 2.98 ± 0.096 | 2.85 ± 0.086 | 3.06 ± 0.093 | –
